Paper doi:10.1101/2024.07.30.605797

Biological target: C-terminal His6-tagged VanA-type VanS^127-384 (cytoplasmic domain of the histidine kinase VanS) (UniProt Q06240)
Test: differential scanning fluorimetry

| Substance | Kd [µM] |
| --- | --- |
| siamycin I (peptide) | 38 |
| sviceucin (peptide) | 52 |
